In article PMC9919667 one finds Kd, apparent binding efficiency (Bmax/KD) and percent of applied galectin bound and eluted data, which are given here for eleven substances.

For assay [1], the target named is asialofetuin (ASF) (bovine (from fetal calf serum)) (UniProt P12763). The experiment in a line: ELISA; ASF (5 µg/mL, 200 µL/well) adsorbed on Maxisorp plates; IMAC-purified galectin 0-30 µM in PBS, 1 h; peroxidase-conjugated anti-His6 antibody, TMB; apparent KD, one-site saturation fit; binding efficiency = Bmax/KD.
asialofetuin (ASF) (bovine (from fetal calf serum)), sequence (P12763 19-359): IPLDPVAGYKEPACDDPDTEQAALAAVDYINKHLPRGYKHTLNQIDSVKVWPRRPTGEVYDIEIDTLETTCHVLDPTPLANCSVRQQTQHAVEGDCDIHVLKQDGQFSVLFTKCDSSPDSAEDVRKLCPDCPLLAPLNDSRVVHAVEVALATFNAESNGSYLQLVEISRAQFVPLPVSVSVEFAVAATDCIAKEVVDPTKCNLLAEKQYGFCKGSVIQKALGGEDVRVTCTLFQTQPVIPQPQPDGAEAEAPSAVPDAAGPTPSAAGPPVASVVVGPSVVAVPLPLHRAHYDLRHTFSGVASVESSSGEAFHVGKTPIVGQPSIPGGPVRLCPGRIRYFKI
The target in assay [2] is fetuin (bovine (from fetal calf serum)) (UniProt P12763). Put plainly: affinity chromatography on glycoprotein-Sepharose column; ASF or fetuin coupled to CNBr-activated Sepharose 4 Fast Flow (1 mL column); 0.2 µmol of galectin IMAC eluate applied, 15 min incubation, PBS pH 7.5, washed with 10 column volumes, eluted with a 0-0.3 M lactose gradient; eluted amount by Bradford assay; repeated three times.
fetuin (bovine (from fetal calf serum)), sequence (P12763 19-359): as above

In assay [3] the target is asialofetuin (ASF) (bovine (from fetal calf serum)) (UniProt P12763). The assay is described as above.
The target in assay [4] is collagen IV (from human placenta) (human). The experiment in a line: ELISA; laminin, fibronectin or collagen IV (5 µg/mL, 100 µL/well) adsorbed on Maxisorp plates; galectin 0-10 µM, 1 h; peroxidase-conjugated anti-His6 antibody, TMB; apparent KD, one-site saturation fit. (ELISA stands for enzyme-linked immunosorbent assay.)
collagen IV (from human placenta) (human), sequence (P02462 173-1669, chain 1 of 2): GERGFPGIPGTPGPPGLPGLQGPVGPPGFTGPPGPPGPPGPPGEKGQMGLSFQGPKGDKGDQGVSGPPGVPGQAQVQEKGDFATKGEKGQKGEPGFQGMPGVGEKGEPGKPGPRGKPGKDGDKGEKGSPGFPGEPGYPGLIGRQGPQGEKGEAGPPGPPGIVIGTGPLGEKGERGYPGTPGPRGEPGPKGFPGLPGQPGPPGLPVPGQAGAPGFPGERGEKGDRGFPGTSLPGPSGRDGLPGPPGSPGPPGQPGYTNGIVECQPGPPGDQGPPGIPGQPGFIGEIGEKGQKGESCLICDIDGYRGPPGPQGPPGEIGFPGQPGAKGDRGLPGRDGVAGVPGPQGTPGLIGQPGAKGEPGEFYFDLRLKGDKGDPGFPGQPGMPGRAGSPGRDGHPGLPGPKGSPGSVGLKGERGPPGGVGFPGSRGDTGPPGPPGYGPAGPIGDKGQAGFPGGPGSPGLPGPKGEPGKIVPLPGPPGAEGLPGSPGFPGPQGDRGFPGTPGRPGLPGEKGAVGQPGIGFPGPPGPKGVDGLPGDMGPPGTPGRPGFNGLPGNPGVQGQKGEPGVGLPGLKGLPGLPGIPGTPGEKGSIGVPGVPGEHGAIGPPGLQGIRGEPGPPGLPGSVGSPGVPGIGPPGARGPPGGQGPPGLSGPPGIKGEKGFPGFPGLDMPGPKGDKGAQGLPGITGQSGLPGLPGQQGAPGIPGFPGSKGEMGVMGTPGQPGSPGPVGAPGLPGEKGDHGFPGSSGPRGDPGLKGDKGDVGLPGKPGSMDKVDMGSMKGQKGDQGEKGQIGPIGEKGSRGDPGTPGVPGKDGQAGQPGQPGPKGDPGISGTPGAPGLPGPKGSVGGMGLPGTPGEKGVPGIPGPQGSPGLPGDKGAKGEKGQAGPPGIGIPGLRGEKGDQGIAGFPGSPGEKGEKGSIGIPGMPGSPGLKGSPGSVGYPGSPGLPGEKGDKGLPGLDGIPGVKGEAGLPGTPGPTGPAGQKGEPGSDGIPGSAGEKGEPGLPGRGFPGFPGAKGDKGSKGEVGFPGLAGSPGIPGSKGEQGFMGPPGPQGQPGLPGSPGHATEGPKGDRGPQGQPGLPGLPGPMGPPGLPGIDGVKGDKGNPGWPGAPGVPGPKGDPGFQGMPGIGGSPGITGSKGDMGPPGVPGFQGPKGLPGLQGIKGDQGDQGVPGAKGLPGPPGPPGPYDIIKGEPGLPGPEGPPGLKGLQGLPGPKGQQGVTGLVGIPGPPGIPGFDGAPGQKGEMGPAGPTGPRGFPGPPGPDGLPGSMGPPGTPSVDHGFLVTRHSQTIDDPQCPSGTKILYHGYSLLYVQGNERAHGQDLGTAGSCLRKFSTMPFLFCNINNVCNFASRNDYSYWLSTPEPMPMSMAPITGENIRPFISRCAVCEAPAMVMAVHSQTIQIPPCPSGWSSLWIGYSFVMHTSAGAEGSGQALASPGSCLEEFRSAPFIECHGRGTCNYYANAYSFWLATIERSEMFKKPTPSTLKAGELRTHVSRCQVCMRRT
collagen IV (from human placenta) (human), sequence (P08572 184-1712, chain 2 of 2, further chain): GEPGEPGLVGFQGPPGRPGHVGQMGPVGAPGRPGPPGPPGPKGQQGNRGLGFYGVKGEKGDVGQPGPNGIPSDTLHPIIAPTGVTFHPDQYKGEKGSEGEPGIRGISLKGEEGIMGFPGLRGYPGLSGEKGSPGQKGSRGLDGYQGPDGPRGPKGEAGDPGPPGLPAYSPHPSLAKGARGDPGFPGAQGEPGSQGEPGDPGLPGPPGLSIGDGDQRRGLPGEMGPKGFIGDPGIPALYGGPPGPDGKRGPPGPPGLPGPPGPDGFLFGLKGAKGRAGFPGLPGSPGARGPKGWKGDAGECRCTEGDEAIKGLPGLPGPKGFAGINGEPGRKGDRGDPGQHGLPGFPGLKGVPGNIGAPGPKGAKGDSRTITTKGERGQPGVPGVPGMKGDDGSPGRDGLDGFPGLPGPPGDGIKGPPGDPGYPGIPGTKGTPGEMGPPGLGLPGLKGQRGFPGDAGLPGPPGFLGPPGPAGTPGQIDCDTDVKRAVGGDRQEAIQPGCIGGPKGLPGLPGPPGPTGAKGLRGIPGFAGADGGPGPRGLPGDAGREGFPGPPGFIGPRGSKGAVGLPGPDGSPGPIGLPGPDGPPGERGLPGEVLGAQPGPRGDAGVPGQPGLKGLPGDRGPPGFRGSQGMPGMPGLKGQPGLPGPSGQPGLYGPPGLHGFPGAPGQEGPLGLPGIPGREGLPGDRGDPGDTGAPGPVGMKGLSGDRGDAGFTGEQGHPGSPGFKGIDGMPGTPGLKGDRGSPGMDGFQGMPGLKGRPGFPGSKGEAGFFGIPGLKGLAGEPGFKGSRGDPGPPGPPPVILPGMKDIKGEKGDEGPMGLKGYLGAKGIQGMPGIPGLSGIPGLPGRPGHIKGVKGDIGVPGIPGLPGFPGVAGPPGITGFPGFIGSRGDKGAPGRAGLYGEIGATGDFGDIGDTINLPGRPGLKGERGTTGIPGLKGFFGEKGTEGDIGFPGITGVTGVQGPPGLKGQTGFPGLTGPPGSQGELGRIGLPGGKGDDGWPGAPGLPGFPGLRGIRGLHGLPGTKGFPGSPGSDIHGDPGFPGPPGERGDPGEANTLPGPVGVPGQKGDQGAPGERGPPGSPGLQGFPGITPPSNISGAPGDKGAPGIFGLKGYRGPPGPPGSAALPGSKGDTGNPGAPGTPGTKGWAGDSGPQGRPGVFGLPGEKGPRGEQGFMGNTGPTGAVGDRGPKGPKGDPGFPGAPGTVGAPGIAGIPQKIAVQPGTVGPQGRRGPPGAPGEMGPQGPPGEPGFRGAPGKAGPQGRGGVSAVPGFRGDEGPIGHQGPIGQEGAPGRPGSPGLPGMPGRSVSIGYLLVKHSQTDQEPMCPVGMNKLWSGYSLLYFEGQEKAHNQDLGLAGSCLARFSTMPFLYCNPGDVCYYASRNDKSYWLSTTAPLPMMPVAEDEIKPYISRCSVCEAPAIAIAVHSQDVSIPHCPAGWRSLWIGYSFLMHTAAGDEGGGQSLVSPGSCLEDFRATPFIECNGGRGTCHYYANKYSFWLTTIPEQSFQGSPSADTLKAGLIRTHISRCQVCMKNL
Assay [5] concerns the target laminin (from Engelbreth-Holm-Swarm sarcoma) (not stated (Engelbreth-Holm-Swarm sarcoma; detected with an anti-mouse-laminin antibody)). The assay is described as above.
Assay [6] addresses fibronectin (from human plasma) (human) (UniProt P02751). The description is as above.
The target in assay [7] is HGal-3 (His6-Gal-3) (human) (UniProt P17931). The experiment in a line: ELISA; crosslinking assay: ASF adsorbed on Maxisorp plates, saturating galectin (50 µM Gal-1C2S, 25 µM Gal-3, 40 µM Gal-8N) bound for 1 h at room temperature, then laminin, fibronectin or collagen IV 0-50 µM for 1 h; detected with anti-ECM-protein antibodies and peroxidase-conjugated secondary antibodies; apparent KD, one-site saturation fit.

For assay [8], the target named is HSYGal-3 (His6-SNAP-yellow fluorescent protein-Gal-3) (human) (UniProt P17931). The description is as above.
In assay [9] the target is HGal-8N (His6-Gal-8N, N-terminal domain of galectin-8) (human) (UniProt O00214). Described as above.
HGal-8N (His6-Gal-8N, N-terminal domain of galectin-8) (human), sequence (O00214 1-160): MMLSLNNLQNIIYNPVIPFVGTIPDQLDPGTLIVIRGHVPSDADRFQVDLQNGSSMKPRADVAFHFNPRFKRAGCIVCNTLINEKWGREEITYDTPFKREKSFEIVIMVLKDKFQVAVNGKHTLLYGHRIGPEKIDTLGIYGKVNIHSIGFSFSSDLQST
Assay [10] has as its target HSDsRedMGal-1C2S (His6-SNAP-DsRedM-Gal-1C2S) (human) (UniProt P09382). The description is as above.
For assay [11], the target named is HSeGFPGal-8N (His6-SNAP-eGFP-Gal-8N) (human) (UniProt O00214). Described as above.
HSeGFPGal-8N (His6-SNAP-eGFP-Gal-8N) (human), sequence (O00214 1-160): as above
Assay [12] addresses HGal-1C2S (His6-Gal-1 C2S) (human) (UniProt P09382). The assay is described as above.

HSeGFPGal-8N (His6-SNAP-eGFP-Gal-8N), sequence (O00214 1-160): as above
HGal-8N (His6-Gal-8N, N-terminal domain of galectin-8), sequence (O00214 1-160): as above

Consider “HDsRedMGal-1C2S (His6-DsRedM-Gal-1C2S, without SNAP-tag) (from UniProt P09382 1-135) (natural protein)”, for which, in assay [1], the Kd worked out at 8.8 µM and the apparent binding efficiency (Bmax/KD) came to 0.1 µM⁻¹.
On to “HGal-1C2S (His6-Gal-1 C2S) (from UniProt P09382 1-135) (natural protein)”, for which the Kd in assay [1] worked out at 0.5 µM; in assay [4] it was 1.34 µM; in [5], 0.42 µM; in [6], 1.97 µM. In addition, in [1], the apparent binding efficiency (Bmax/KD) amounted to 1.6 µM⁻¹. Also, the values for the percent of applied galectin bound and eluted in [2] and in assay [3] were 30% and 70%, respectively.
Take “HGal-3 (His6-Gal-3) (from UniProt P17931 1-250) (natural protein)”: the Kd in [5] was found to be 0.13 µM; in assay [6], 0.43 µM.
In turn, “HGal-8C (His6-Gal-8C, C-terminal domain of galectin-8) (from UniProt O00214 182-317) (domain or fragment)” yielded a percent of applied galectin bound and eluted in assay [3] of 3%.
With “HGal-8N (His6-Gal-8N, N-terminal domain of galectin-8) (from UniProt O00214 1-160) (domain or fragment)”, the Kd in assay [5] turned out to be 0.18 µM; in assay [6] it was 0.52 µM.
“HSDsRedMGal-1C2S (His6-SNAP-DsRedM-Gal-1C2S) (from UniProt P09382 1-135) (natural protein)”: the Kd in assay [1] amounted to 0.6 µM; in [4], 0.14 µM; in [5], 0.11 µM; in assay [6], 0.11 µM. Further, the apparent binding efficiency (Bmax/KD) in assay [1] was 1.4 µM⁻¹. Besides, the percent of applied galectin bound and eluted in [3] worked out at 4%.
With “HSGal-1C2S (His6-SNAP-Gal-1C2S, without fluorescent protein) (from UniProt P09382 1-135) (natural protein)”, in assay [1], the Kd came to 0.8 µM and the apparent binding efficiency (Bmax/KD) was 1.1 µM⁻¹.
For “HSYGal-3 (His6-SNAP-yellow fluorescent protein-Gal-3) (from UniProt P17931 1-250) (natural protein)”, the Kd in assay [5] stood at 0.07 µM; in [6], 0.11 µM.
As to “HSeGFPGal-8N (His6-SNAP-eGFP-Gal-8N) (from UniProt O00214 1-160) (domain or fragment)”, the Kd in assay [5] worked out at 0.04 µM; in [6] it was 0.06 µM.
For “fibronectin (from human plasma) (from UniProt P02751 32-2477) (natural protein)”, the Kd was 5.1 µM in assay [7] and 10 µM in assay [8].
Take “laminin (from Engelbreth-Holm-Swarm sarcoma) (complex)”: the Kd in [9] is 69.5 µM; in assay [7] it was 0.27 µM; in assay [10], 0.37 µM; in assay [11], 0.27 µM; in assay [8], 0.45 µM; in [12] it was 0.38 µM.
